Laboratory results as given in patent US20120207676.

Each binder was assayed against T1, Neurotensin receptor NTS1 (HT29 cells/membranes) (human), P30989 (assay: competition, HT29 cells). Details: modification not given.
T1 sequence (P30989 whole entry): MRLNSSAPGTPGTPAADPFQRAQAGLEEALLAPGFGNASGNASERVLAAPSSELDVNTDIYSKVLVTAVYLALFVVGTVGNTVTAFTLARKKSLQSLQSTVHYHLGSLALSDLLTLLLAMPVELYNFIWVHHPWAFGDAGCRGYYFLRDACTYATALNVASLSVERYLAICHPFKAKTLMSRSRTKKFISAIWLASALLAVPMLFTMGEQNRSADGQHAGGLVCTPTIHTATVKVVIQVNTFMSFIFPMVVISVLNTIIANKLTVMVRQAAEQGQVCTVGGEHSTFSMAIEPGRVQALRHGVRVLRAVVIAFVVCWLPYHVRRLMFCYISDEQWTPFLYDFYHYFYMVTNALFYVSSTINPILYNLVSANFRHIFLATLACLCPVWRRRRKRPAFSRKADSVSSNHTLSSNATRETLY

Binder	IC50
KPRRPYIL [DTPA(In)-NT-20.1]	6.73 nM
KPRRPYIL [DOTA(In)-LB119]	14.1 nM
KPRRPYIL [DOTA(Ga)-LB119]	7.5 nM
KPRRPYIL [DOTA(Y)-LB119]	9.9 nM

More lines, now with the values ahead:

IC50	Binder
2.46 nM	KPRRPYIL [NT-20.2]
41.2 nM	KPRRPYIL [DTPA(In)-NT-20.2]
0.82 nM	KPRRPYIL [NT-20.1]

What follows are binders tested against T1, Neurotensin receptor NTS1 (HT29 …) (assay: competition, HT29 membranes). Details: modification not given.

Ki	Binder
0.26 nM	KPRRPYIL [NT-20.2]
0.66 nM	KPRRPYIL [DTPA(In)-NT-20.1]
1.55 nM	KPRRPYIL [DTPA(In)-NT-20.2]
0.072 nM	KPRRPYIL [NT-20.1]
